Test [1] deals with DNA polymerase α-primase complex (human) (UniProt P09884).
Test [2] concerns the target wt Tag_(131-627) (simian virus 40). Kind of test: atomic force microscopy (volume analysis); 500 nM protein (or 250 nM each of M1 and M2) with gapped DNA substrate (48 nt ssDNA at the centre of ~500 bp, 3-5 nM) in 25 mM HEPES-NaOH pH 7.5, 25 mM sodium acetate, 10 mM magnesium acetate, 1 mM ATP, 1 h at room temperature; cross-linked with 0.1% glutaraldehyde; volumes of complexes on the ssDNA stretch.

Test [3] shares this target. Kind of test: SEC; Superdex 200 16/600 column; proteins in solution; data not shown. (In gel filtration, larger molecules generally elute earlier.)
For test [4], the target named is full-length SV40 T antigen Tag_(1-708) (simian virus 40) (UniProt P03070). Put plainly: atomic force microscopy (volume analysis); 500 nM protein (or 250 nM each of M1 and M2) with gapped DNA substrate (48 nt ssDNA at the centre of ~500 bp, 3-5 nM) in 25 mM HEPES-NaOH pH 7.5, 25 mM sodium acetate, 10 mM magnesium acetate, 1 mM ATP, 1 h at room temperature; cross-linked with 0.1% glutaraldehyde; volumes of complexes on the ssDNA stretch.

In test [5] the target is DNA polymerase α-primase complex (human) (UniProt P09884). The source holds these as a separate data set.

“And” between values parts separate entries of the source, which are not always exact repeats. Identical values can stand only once.

UniProt P09884, sequence (P09884 whole entry, chain 1 of 4): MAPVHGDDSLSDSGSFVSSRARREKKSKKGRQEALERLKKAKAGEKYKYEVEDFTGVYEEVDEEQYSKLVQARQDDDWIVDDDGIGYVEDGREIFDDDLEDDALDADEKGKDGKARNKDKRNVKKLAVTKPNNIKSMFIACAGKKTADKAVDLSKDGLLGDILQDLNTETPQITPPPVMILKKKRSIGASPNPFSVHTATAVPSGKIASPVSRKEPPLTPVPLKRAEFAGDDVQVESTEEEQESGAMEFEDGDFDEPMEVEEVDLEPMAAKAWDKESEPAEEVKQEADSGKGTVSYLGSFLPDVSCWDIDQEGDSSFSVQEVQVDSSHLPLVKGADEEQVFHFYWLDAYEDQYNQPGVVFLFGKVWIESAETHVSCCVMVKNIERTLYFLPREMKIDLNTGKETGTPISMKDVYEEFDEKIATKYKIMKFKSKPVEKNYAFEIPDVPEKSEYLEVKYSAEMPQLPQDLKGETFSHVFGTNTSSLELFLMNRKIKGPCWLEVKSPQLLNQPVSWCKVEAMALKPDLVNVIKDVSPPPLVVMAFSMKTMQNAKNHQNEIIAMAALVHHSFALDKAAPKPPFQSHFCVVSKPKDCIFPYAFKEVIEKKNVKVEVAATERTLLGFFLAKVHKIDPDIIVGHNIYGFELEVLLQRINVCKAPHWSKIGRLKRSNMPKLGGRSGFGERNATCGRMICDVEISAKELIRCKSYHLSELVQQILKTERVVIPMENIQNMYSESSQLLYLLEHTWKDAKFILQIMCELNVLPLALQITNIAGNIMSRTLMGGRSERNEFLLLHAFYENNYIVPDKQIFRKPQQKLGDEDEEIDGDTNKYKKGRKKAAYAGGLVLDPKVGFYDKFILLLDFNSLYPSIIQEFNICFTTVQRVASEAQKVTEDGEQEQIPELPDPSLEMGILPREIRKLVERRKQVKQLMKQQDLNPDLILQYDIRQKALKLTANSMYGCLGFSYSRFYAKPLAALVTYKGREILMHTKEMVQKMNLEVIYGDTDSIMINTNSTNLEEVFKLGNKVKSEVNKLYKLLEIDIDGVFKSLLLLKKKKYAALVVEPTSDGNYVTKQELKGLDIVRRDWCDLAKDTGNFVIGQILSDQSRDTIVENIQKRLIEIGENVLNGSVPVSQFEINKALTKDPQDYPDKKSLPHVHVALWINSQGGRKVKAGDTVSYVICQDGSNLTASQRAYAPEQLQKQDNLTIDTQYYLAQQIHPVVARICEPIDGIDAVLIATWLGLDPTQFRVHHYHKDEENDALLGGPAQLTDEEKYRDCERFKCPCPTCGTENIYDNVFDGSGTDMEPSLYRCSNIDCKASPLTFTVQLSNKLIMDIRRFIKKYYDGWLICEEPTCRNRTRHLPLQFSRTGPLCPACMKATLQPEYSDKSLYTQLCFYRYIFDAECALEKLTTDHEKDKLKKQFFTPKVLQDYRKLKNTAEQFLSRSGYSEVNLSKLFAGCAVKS
UniProt P09884, sequence (Q14181 whole entry, chain 2 of 4, further chain): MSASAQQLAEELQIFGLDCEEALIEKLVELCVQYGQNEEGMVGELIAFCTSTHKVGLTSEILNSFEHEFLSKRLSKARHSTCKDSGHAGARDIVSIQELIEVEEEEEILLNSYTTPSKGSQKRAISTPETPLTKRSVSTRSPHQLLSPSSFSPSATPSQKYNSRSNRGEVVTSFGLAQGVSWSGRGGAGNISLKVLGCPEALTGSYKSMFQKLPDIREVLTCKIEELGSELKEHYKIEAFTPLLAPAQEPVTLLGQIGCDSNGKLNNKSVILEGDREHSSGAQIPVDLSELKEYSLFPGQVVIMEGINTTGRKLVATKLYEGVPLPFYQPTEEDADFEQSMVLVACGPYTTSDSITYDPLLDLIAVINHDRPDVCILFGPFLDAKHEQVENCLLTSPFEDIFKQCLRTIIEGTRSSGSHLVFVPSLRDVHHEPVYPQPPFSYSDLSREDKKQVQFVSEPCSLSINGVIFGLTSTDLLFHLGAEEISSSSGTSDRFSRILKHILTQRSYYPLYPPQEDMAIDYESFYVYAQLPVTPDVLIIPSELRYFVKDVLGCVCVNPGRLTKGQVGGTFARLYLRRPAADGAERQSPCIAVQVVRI
UniProt P09884, sequence (P49643 whole entry, chain 3 of 4, further chain): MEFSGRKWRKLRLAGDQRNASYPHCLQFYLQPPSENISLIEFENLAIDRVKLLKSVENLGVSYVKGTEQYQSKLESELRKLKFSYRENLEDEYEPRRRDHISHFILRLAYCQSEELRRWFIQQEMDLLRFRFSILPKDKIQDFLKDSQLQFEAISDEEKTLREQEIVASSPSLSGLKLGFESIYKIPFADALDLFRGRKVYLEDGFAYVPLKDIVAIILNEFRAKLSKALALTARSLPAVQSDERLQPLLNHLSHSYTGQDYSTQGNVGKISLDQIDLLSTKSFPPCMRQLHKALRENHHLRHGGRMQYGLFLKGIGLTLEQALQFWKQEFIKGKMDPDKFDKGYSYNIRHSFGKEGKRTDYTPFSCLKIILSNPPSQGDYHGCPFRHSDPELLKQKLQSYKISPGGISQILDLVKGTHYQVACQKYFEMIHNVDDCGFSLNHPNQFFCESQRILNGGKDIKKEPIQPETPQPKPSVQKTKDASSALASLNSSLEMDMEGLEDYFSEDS
UniProt P09884, sequence (P49642 whole entry, chain 4 of 4, further chain): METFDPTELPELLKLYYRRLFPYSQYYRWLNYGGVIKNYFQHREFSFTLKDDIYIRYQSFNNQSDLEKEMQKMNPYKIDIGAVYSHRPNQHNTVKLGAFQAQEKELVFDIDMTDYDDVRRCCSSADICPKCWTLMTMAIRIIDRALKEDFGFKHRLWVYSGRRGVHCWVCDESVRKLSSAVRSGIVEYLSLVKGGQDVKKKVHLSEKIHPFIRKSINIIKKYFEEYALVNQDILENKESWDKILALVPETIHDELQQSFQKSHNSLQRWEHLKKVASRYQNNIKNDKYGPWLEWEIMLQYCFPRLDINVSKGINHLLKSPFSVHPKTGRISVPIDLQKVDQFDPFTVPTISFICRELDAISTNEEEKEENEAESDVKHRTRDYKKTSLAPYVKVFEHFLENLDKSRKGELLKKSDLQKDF

On to “Tag_(131-627)(V350E/P417D) (domain or fragment)”, for which, in test [1], the primase-initiated DNA synthesis (dNMP incorporation) by Pol-prim on ΦΧ174 ssDNA, 0.3 and 0.6 µg Tag variant, reduction against Pol-prim alone was determined as 65 % reduction.

wt Tag_(131-627) (domain or fragment): the stoichiometry N in test [2] was 6 and 12; in test [3], 6. In test [1], this substance returned a primase-initiated DNA synthesis (dNMP incorporation) by Pol-prim on ΦΧ174 ssDNA, 0.3 and 0.6 µg Tag variant, inhibition against Pol-prim alone of 96 % inhibition.

Take “full-length SV40 T antigen Tag_(1-708) (from UniProt P03070 1-708) (natural protein)”: in test [4], the stoichiometry N came out at 2. Further, the primase-initiated DNA synthesis (dNMP incorporation) by Pol-prim on RPA-bound ssDNA (0.5 µg RPA), 0.3 and 0.6 µg Tag, stimulation against RPA without Tag in test [5] is 11.5 fold.

Consider “Tag_(131-627)(L286D/R567E) (domain or fragment)”, for which the primase-initiated DNA synthesis (dNMP incorporation) by Pol-prim on ΦΧ174 ssDNA, 0.3 and 0.6 µg Tag variant, stimulation against Pol-prim alone in test [1] was 4 fold. Moreover, the primase-initiated DNA synthesis (dNMP incorporation) by Pol-prim on RPA-bound ssDNA (0.5 µg RPA), 0.3 and 0.6 µg Tag variant, stimulation against RPA without Tag in test [5] came out at 10.4 fold.

As a reminder, the stoichiometry N is the number of molecules, sites or subunits per partner or assembly.

These data come from article PMC8886539.
